This passage reports % Inhibition results from US20050282739A1.

The target of this assay is bombesin receptor of rat brain membranes (rat). Description: 125I-Bombesin competition, rat brain membranes.

Square brackets hold non-standard residues; d marks the D form. Ends that are not written are not given here. pGlu = O=C1CC[C@@H](C(=O)O)N1; Nle = CCCC[C@H](N)C(=O)O

XQRLGNQWAVGHLCX (Pyr 1; Nle 15; C-terminal amide; Re complexed at Cys 14) [metallopeptide 6-2]: the % Inhibition (commonly the drop in the measured response relative to a control, in per cent) turned out to be 91%.

For [pGlu]QRLGNQWCAVGHL[Nle]-NH2 (also: Re(V)=O N3S1 chelate at Cys9 (from ReOCl3(PPh3)2)) [metallopeptide 6-7], the % Inhibition was 62%.

Regarding XQRCGNQWAVGHLX (Pyr 1; Nle 14; C-terminal amide; Re complexed at Cys 4) [metallopeptide 7-11], the % Inhibition was determined as 95%.

In the case of [pGlu]QRLGNCQWAVGHL[Nle]-NH2 (also: Re(V)=O N3S1 chelate at Cys7 (from ReOCl3(PPh3)2)) [metallopeptide 6-9], the % Inhibition was 91%.

B1: metallopeptide 9-7 (peptide)
peptide: [dF]QCAVGHLL-NH2
modifications: not fully specified (bridges); printed as D-Phe-Gln-Cys-Ala-Val-Gly-His-Leu-Leu-NH2; also: Re(V)=O complexed at Cys (N3S1 chelate)
Turning to B1, the % Inhibition is 19%.

Regarding XQRLGNQWCVGHLX (Pyr 1; Nle 14; C-terminal amide; Re complexed at Cys 9) [metallopeptide 7-6], the % Inhibition came out at 91%.

For XQRLGNCWAVGHLX (Pyr 1; Nle 14; C-terminal amide; Re complexed at Cys 7) [metallopeptide 7-8], the % Inhibition came to 84%.

For the molecule XQRLGNQWAVGHCX (Pyr 1; Nle 14; C-terminal amide; Re complexed at Cys 13) [metallopeptide 7-2], the % Inhibition was determined as 66%.

B2: metallopeptide 9-3 (peptide)
peptide: [dF]QWAVGCLL-NH2
modifications: not fully specified (bridges); printed as D-Phe-Gln-Trp-Ala-Val-Gly-Cys-Leu-Leu-NH2; also: Re(V)=O chelate (N3S1) at Cys7
Take B2: the % Inhibition was 70%.

B3: metallopeptide 8-8 (peptide)
peptide: [dF]QCWAVGHLL-NH2
modifications: not fully specified (bridges); printed as D-Phe-Gln-Cys-Trp-Ala-Val-Gly-His-Leu-Leu-NH2; also: Re(V)=O chelate (N3S1) at Cys3
For B3, the % Inhibition stood at 62%.

B4: metallopeptide 9-2 (peptide)
peptide: [dF]QWAVGHCL-NH2
modifications: not fully specified (bridges); printed as D-Phe-Gln-Trp-Ala-Val-Gly-His-Cys-Leu-NH2; also: Re(V)=O chelate (N3S1) at Cys8
B4: the % Inhibition is 35%.

XQRLGNQWACGHLX (Pyr 1; Nle 14; C-terminal amide; Re complexed at Cys 10) [metallopeptide 7-5]: the % Inhibition worked out at 61%.

With [pGlu]QRLGNQCWAVGHL[Nle]-NH2 (also: Re(V)=O N3S1 chelate at Cys8 (from ReOCl3(PPh3)2)) [metallopeptide 6-8], the % Inhibition came out at 75%.

Turning to Ac-AQCRLGNQWAVGHL[Nle]-NH2 (also: Re(V)=O N3S1 chelate at Cys3 (from ReOCl3(PPh3)2)) [metallopeptide 6-13], the % Inhibition is 99%.

B5: metallopeptide 9-6 (peptide)
peptide: [dF]QWCVGHLL-NH2
modifications: not fully specified (bridges); printed as D-Phe-Gln-Trp-Cys-Val-Gly-His-Leu-Leu-NH2; also: Re(V)=O complexed at Cys (N3S1 chelate)
On to B5, for which the % Inhibition turned out to be 43%.

As to XQRLGNQWAVCHLX (Pyr 1; Nle 14; C-terminal amide; Re complexed at Cys 11) [metallopeptide 7-4], the % Inhibition is 81%.

B6: metallopeptide 8-1 (peptide)
peptide: [dF]QWAVGHLLC-NH2
modifications: bridge (positions not given here) via ReOCl3(PPh3)2; also: oxorhenium(V) N3S1 tetradentate complex at Cys 10
On to B6, for which the % Inhibition worked out at 39%.

Take [dF]QWAVGHLC-NH2 (not fully specified (bridges); also: Re(V)=O chelate (N3S1) at Cys9) [metallopeptide 9-1]: the % Inhibition was found to be 86%.

B7: metallopeptide 8-5 (peptide)
peptide: [dF]QWAVCGHLL-NH2
modifications: bridge (positions not given here) via ReOCl3(PPh3)2; also: oxorhenium(V) N3S1 tetradentate complex at Cys 6
For B7, the % Inhibition amounted to 70%.

B8: metallopeptide 9-5 (peptide)
peptide: [dF]QWACGHLL-NH2
modifications: not fully specified (bridges); printed as D-Phe-Gln-Trp-Ala-Cys-Gly-His-Leu-Leu-NH2; also: Re(V)=O complexed at Cys (N3S1 chelate)
In the case of B8, the % Inhibition was found to be 17%.

Regarding [pGlu]QRLGNQWAVGHCL[Nle]-NH2 (also: Re(V)=O N3S1 chelate at Cys13 (from ReOCl3(PPh3)2)) [metallopeptide 6-3], the % Inhibition came out at 71%.

Regarding [pGlu]QRLGNQWAVGCHL[Nle]-NH2 (also: Re(V)=O N3S1 chelate at Cys12 (from ReOCl3(PPh3)2)) [metallopeptide 6-4], the % Inhibition was found to be 70%.

B9: bombesin analog parent polypeptide D-Phe-Gln-Trp-Ala-Val-Gly-His-Leu-Leu-NH2 (peptide)
peptide: [dF]QWAVGHLL-NH2
modifications: N-terminus assumed
SMILES: CC(C)C[C@H](NC(=O)[C@H](CC(C)C)NC(=O)[C@H](Cc1c[nH]cn1)NC(=O)CNC(=O)[C@@H](NC(=O)[C@H](C)NC(=O)[C@H](Cc1c[nH]c2ccccc12)NC(=O)[C@H](CCC(N)=O)NC(=O)[C@H](N)Cc1ccccc1)C(C)C)C(N)=O
As to B9, the % Inhibition stood at 92%.

For [pGlu]QRLGNQWAVCGHL[Nle]-NH2 (also: Re(V)=O N3S1 chelate at Cys11 (from ReOCl3(PPh3)2)) [metallopeptide 6-5], the % Inhibition is 67%.

Consider [pGlu]QRLGNQWAVGHL[Nle]C-NH2 (also: oxorhenium(V) N3S1 chelate at Cys15) [metallopeptide 6-1], for which the % Inhibition is 82%.

For the molecule [pGlu]QRLGCNQWAVGHL[Nle]-NH2 (also: oxorhenium(V) N3S1 chelate at Cys6) [metallopeptide 6-10], the % Inhibition is 93%.

B10: metallopeptide 9-4 (peptide)
peptide: [dF]QWAVCHLL-NH2
modifications: not fully specified (bridges); printed as D-Phe-Gln-Trp-Ala-Val-Cys-His-Leu-Leu-NH2; also: Re(V)=O complexed at Cys (N3S1 chelate)
For B10, the % Inhibition came out at 75%.

As to XQRLGNQCAVGHLX (Pyr 1; Nle 14; C-terminal amide; Re complexed at Cys 8) [metallopeptide 7-7], the % Inhibition was -2%.

On to XQRLGNQWAVGHLC (Pyr 1; C-terminal amide; Re complexed at Cys 14) [metallopeptide 7-1], for which the % Inhibition is 73%.

B11: metallopeptide 8-6 (peptide)
peptide: [dF]QWACVGHLL-NH2
modifications: not fully specified (bridges); printed as D-Phe-Gln-Trp-Ala-Cys-Val-Gly-His-Leu-Leu-NH2; also: oxorhenium(V) N3S1 tetradentate complex at Cys 5
Consider B11, for which the % Inhibition was 35%.

B12: metallopeptide 8-4 (peptide)
peptide: [dF]QWAVGCHLL-NH2
modifications: bridge (positions not given here) via ReOCl3(PPh3)2; also: oxorhenium(V) N3S1 tetradentate complex at Cys 7
Take B12: the % Inhibition was 59%.

Turning to [pGlu]QRCLGNQWAVGHL[Nle]-NH2 (also: Re(V)=O N3S1 chelate at Cys4 (from ReOCl3(PPh3)2)) [metallopeptide 6-12], the % Inhibition turned out to be 97%.

Regarding XQRLGNQWAVGCLX (Pyr 1; Nle 14; C-terminal amide; Re complexed at Cys 12) [metallopeptide 7-3], the % Inhibition was determined as 82%.

Turning to XQRLGNQWAVGHLM (not fully specified; pyroglutamic acid (Pyr) 1; C-terminal amide) [bombesin parent polypeptide Pyr-Gln-Arg-Leu-Gly-Asn-Gln-Trp-Ala-Val-Gly-His-Leu-Met-NH2], the % Inhibition came to 106%.

Turning to Ac-AQCLGNQWAVGHL[Nle]-NH2 (also: Re(V)=O N3S1 chelate at Cys3 (from ReOCl3(PPh3)2)) [metallopeptide 7-12], the % Inhibition is 96%.

In the case of XQRLGCQWAVGHLX (Pyr 1; Nle 14; C-terminal amide; Re complexed at Cys 6) [metallopeptide 7-9], the % Inhibition was 93%.

B13: metallopeptide 8-3 (peptide)
peptide: [dF]QWAVGHCLL-NH2
modifications: bridge (positions not given here) via ReOCl3(PPh3)2; also: oxorhenium(V) N3S1 tetradentate complex at Cys 8
As for B13, the % Inhibition amounted to 49%.

B14: metallopeptide 8-7 (peptide)
peptide: [dF]QWCAVGHLL-NH2
modifications: not fully specified (bridges); printed as D-Phe-Gln-Trp-Cys-Ala-Val-Gly-His-Leu-Leu-NH2; also: oxorhenium(V) N3S1 tetradentate complex at Cys 4
In the case of B14, the % Inhibition was 8%.

[pGlu]QRLGNQWACVGHL[Nle]-NH2 (also: Re(V)=O N3S1 chelate at Cys10 (from ReOCl3(PPh3)2)) [metallopeptide 6-6]: the % Inhibition came to 83%.

B15: metallopeptide 8-2 (peptide)
peptide: [dF]QWAVGHLCL-NH2
modifications: bridge (positions not given here) via ReOCl3(PPh3)2; also: oxorhenium(V) N3S1 tetradentate complex at Cys 9
As for B15, the % Inhibition was 75%.
